Reference: US20180369373A1 (INNATE PHARMA, published 2018)

Biological target: T1, human NKp46 (isoform a), expressed on cells (human, UniProt O76036 22-304)
T1 construct: also called huNKp46; Raji-huNKp46 Low
Test: IHC on FFPE cell pellets (Raji transfectants, SNK6) and human spleens, antibody at 5 and 10 pg/ml as printed

T1 sequence (O76036 22-304 Q82K limits assumed): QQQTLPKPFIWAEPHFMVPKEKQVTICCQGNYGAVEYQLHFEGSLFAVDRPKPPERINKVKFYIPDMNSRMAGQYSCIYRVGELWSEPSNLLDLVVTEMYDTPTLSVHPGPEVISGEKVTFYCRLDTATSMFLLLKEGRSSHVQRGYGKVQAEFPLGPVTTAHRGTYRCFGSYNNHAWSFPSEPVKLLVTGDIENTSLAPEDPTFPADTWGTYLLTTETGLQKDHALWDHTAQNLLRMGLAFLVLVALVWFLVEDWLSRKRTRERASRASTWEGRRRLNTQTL

binding result: binds
B1: 8E5B antibody (antibody, mouse IgG1, V domains shown)
VH: EIQLQQSGAELVKPGASVKLSCTASGFNIKDTYFHWVKQRPEQGLEWIGRIDPANGNTKYDPKFHDKATIIADISSNTAYLQFSSLTSEDTAVYYCAANRYGYWGQGTTLTVSS
VL: DIVMTQAAPSIPVTPGESVSISCRSSKSLLYINGNTHLFWFLQRPGQSPQLLIYRMSNLASGVPDRFSGSGSGTAFTLRISRVEAEDVGVYYCMQHLEYPFTFGSGTKLEIK
notes: Mouse monoclonal antibody; also called 8E5-B clone; monoclonal antibody 8E5B
